What all share (test): flow cytometry on cells; PBMCs of SLA class I haplotype-defined Microminipigs stained with X2F6 followed by anti-mouse IgG-FITC; lymphoid gate; also after TSST-1 or IFN-γ stimulation
In general terms: In flow cytometry, cells or beads pass a laser one at a time.

Test [1] deals with classical class I SLA on PBMCs of Hp-17.0 homozygous Microminipigs.
Test [2] addresses classical class I SLA on PBMCs of Hp-35.0 homozygous Microminipigs.
The target in test [3] is classical class I SLA on PBMCs of Hp-10.0 homozygous Microminipigs.

The text below walks through data of PMC5070868.

B1: X2F6 monoclonal antibody (antibody, V domains shown)
VH: QVQLQQSGAELVKPGASVKLSCKASGYTFTSYDINWVRQRPEQGLEWIGWIYPGDGSTKYNEKFKGKATLTTDKSSSTAYMQLSRLTSEDSAVYFCASPYYYGSSPFAYWGQGTLVTVSA
VL: DIQMTQSPASLSASVGETVTITCRASENIYSYLAWYQQKQGKSPQLLVYNAKTLAEGVPSRFSGSGSGTQFSLKINSLQPEDFGSYYCQHHYGTPRTFGGGTKLEIK
B1: the MFI was 122 in test [1], 767 in test [2] and 1900 in test [3].
